The values that follow come from US8309097B2, “C-type lectin binding molecules, identification and uses thereof” (Vereniging voor Christelijk Wetenschappelijk Onderwijs, priority 2002, dated 2012).

Assay [1] addresses T1, DC-SIGN-Fc (Homo sapiens, UniProt Q9NNX6).
T1 sequence (Q9NNX6 64-404): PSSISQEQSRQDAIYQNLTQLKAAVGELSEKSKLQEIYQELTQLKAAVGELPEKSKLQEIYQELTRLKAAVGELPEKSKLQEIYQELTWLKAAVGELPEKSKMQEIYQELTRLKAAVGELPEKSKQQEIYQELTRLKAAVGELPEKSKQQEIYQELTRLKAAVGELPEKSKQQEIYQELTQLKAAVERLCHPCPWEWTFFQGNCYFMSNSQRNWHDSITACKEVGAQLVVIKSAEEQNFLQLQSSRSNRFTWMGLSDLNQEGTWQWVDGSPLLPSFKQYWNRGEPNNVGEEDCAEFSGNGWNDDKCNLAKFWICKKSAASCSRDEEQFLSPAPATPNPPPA
Kind of assay: Soluble DC-SIGN-Fc adhesion assay (Fc ELISA). Particulars: ELISA, ligand coated. (In general: ELISA stands for enzyme-linked immunosorbent assay.)

The target of assay [2] is T2, DC-SIGN expressed by K562 transfectants (Homo sapiens, UniProt Q9NNX6).
T2 construct: expressed in transfected cells; host or cells: K562
T2 sequence (Q9NNX6 1-404): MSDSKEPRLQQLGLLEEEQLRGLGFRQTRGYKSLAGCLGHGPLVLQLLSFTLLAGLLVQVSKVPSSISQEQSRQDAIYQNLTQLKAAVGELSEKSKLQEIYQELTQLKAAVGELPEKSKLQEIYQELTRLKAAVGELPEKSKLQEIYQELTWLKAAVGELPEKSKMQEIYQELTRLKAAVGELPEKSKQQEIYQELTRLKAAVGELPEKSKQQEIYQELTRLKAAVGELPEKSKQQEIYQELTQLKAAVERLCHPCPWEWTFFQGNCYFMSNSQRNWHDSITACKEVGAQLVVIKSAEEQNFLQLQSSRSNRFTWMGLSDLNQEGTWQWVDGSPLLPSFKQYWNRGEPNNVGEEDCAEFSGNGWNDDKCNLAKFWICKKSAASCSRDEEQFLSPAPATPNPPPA
The assay is classed as cell-based.

The target of assay [3] is T3, DC-SIGN on immature monocyte derived DC (Homo sapiens, UniProt Q9NNX6).
T3 construct: Immature DC were cultured from monocytes in the presence of IL-4 and GM-CSF; endogenous in cells; host or cells: immature monocyte-derived dendritic cells
T3 sequence (Q9NNX6 1-404): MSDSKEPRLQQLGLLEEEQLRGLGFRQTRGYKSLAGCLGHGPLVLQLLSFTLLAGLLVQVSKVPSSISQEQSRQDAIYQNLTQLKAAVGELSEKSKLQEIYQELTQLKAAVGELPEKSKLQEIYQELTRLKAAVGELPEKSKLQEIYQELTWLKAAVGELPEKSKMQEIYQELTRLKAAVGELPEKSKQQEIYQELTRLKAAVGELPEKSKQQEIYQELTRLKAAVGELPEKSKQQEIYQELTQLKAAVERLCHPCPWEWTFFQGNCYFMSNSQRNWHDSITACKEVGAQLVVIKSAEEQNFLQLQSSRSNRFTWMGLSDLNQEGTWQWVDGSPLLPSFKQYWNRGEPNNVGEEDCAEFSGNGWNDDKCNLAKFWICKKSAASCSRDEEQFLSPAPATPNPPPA
Put plainly: Fluorescent bead adhesion assay, immature DC. The assay is classed as cell-based.

For assay [4], the target named is T1, DC-SIGN-Fc. Kind of assay: Immunoprecipitation and detection with DC-SIGN-Fc. The assay is classed as binding. From the text: FIG. 59. […] Cell-surface proteins are biotinylated and PMNs are lysed. Lane 1. negative control using ICAM-3 Fc to capture by IP proteins. Detection is peroxidase-labeled streptavidin. Lane 2. DC-SIGN-Fc is used to capture ligands biotinylated ligands from lysate; two protein bands are visible, the upper band consists of CD11b and CD66a, whereas the lower consists of CD18. Lane 3. Negative control; no bands are immune precipitated with anti-DC-SIGN antibodies. Lane 4, IP with antibodies against CD66acd; a faint band is visible containing CD66a. Lane 5, IP of CD11b; two bands are visible; the upper band is […] and the lower band is CD18m, which is co-immuneprecipitated with […]. Lane 6. IP with DC-SIGN ligands and detection with anti-CD66acd; CD66a is captured by DC-SIGN Fc. Lane 7. IP with DC-SIGN ligands and detection with anti-CD11b; CD11b is captured by DC-SIGN Fc. Lane 8. Negative control, IP with anti-DC-SIGN antibodies and detection with DC-SIGN-Fc. Lane 9. IP with anti-CD66acd and detection with DC-SIGN Fc; CD66a is bound by DC-SIGN on blot. Lane 10. IP with anti-CD11a and detection with DC-SIGN Fc; CD11a is bound by DC-SIGN on blot.
Immunoprecipitation. […]

B1: ICAM-3: cellular ligand of DC-SIGN (protein)
chain: QEFLLRVEPQNPVLSAGGSLFVNCSTDCPSSEKIALETSLSKELVASGMGWAAFNLSNVTGNSRILCSVYCNGSQITGSSNITVYRLPERVELAPLPPWQPVGQNFTLRCQVEDGSPRTSLTVVLLRWEEELSRQPAVEEPAEVTATVLASRDDHGAPFSCRTELDMQPQGLGLFVNTSAPRQLRTFVLPVTPPRLVAPRFLEVETSWPVDCTLDGLFPASEAQVYLALGDQMLNATVMNHGDTLTATATATARADQEGAREIVCNVTLGGERREARENLTVFSFLGPIVNLSEPTAHEGSTVTVSCMAGARVQVTLDGVPAAAPGQPAQLQLNATESDDGRSFFCSATLEVDGEFLHRNSSVQLRVLYGPKIDRATCPQHLKWKDKTRHVLQCQARGNPYPELRCLKEGSSREVPVGIPFFVNVTHNGTYQCQASSSRGKYTLVVVMDIEAGSSH
For B1, in the assay with DC-SIGN-Fc [1], the “binding of DC-SIGN-Fc to coated ligand” value is listed as “does not recognize”.

B2: CEACAM1: native CEACAM1 (CD66) from PMN (protein, UniProt P13688 35-526, looked up)
Cell adhesion molecule CEACAM1: QLTTESMPFNVAEGKEVLLLVHNLPQQLFGYSWYKGERVDGNRQIVGYAIGTQQATPGPANSGRETIYPNASLLIQNVTQNDTGFYTLQVIKSDLVNEEATGQFHVYPELPKPSISSNNSNPVEDKDAVAFTCEPETQDTTYLWWINNQSLPVSPRLQLSNGNRTLTLLSVTRNDTGPYECEIQNPVSANRSDPVTLNVTYGPDTPTISPSDTYYRPGANLSLSCYAASNPPAQYSWLINGTFQQSTQELFIPNITVNNSGSYTCHANNSVTGCNRTTVKTIIVTELSPVVAKPQIKASKTTVTGDKDSVNLTCSTNDTGISIRWFFKNQSLPSSERMKLSQGNTTLSINPVKREDAGTYWCEVFNPISKNQSDPIMLNVNYNALPQENGLSPGAIAGIVIGVVALVALIAVALACFLHFGKTGRASDQRDLTEHKPSVSNHTQDHSNDPPNKMNEVTYSTLNFEAQQPTQPTSASPSLTATEIIYSEVKKQ
In the case of B2, the “binding of DC-SIGN-Fc to coated ligand” value in the assay with DC-SIGN-Fc [1] was “is a ligand of DC-SIGN”. In addition, the “binding of ligand-coated beads to K562 DC-SIGN transfectants” value in assay [2] is given as “binds”. The “binding of ligand-coated beads to immature DC” value in assay [3] is “binds”.

B3: RNAseB: control inhibitor in DC adhesion assay (protein, UniProt P61823 27-150, looked up)
Ribonuclease pancreatic: KETAAAKFERQHMDSSTSAASSSNYCNQMMKSRNLTKDRCKPVNTFVHESLADVQAVCSQKNVACKNGQTNCYQSYSTMSITDCRETGSSKYPNCAYKTTQANKHIIVACEGNPYVPVHFDASV
modifications: glycoform B
For B3, in assay [3], the “inhibition of HIV-1 gp120 adhesion to DC” value is listed as “does not block”. The “inhibition of ICAM-3 adhesion to DC” value in assay [3] (inhibitors 20 μg/ml) is listed as “does not block”.

B4: CD66e: tumor antigen CEA from SW948 tumor cell lysate (protein, UniProt P06731 35-685, looked up)
Cell adhesion molecule CEACAM5: KLTIESTPFNVAEGKEVLLLVHNLPQHLFGYSWYKGERVDGNRQIIGYVIGTQQATPGPAYSGREIIYPNASLLIQNIIQNDTGFYTLHVIKSDLVNEEATGQFRVYPELPKPSISSNNSKPVEDKDAVAFTCEPETQDATYLWWVNNQSLPVSPRLQLSNGNRTLTLFNVTRNDTASYKCETQNPVSARRSDSVILNVLYGPDAPTISPLNTSYRSGENLNLSCHAASNPPAQYSWFVNGTFQQSTQELFIPNITVNNSGSYTCQAHNSDTGLNRTTVTTITVYAEPPKPFITSNNSNPVEDEDAVALTCEPEIQNTTYLWWVNNQSLPVSPRLQLSNDNRTLTLLSVTRNDVGPYECGIQNELSVDHSDPVILNVLYGPDDPTISPSYTYYRPGVNLSLSCHAASNPPAQYSWLIDGNIQQHTQELFISNITEKNSGLYTCQANNSASGHSRTTVKTITVSAELPKPSISSNNSKPVEDKDAVAFTCEPEAQNTTYLWWVNGQSLPVSPRLQLSNGNRTLTLFNVTRNDARAYVCGIQNSVSANRSDPVTLDVLYGPDTPIISPPDSSYLSGANLNLSCHSASNPSPQYSWRINGIPQQHTQVLFIAKITPNNNGTYACFVSNLATGRNNSIVKSITVSASGTSPGLSA
Take B4: in the assay with DC-SIGN-Fc [1], the “binding of DC-SIGN-Fc to coated ligand” value was “bound”. Further, the “binding of DC-SIGN-Fc to immunoprecipitated ligand” value with DC-SIGN-Fc [4] is listed as “binds”. The “binding of DC-SIGN-Fc after α-1,3,4 Fucosidase treatment of the ligand” value in the assay with DC-SIGN-Fc [4] (immunoprecipitation) is recorded as “abrogated”.
